Data reported in article doi:10.1101/803361.

What was measured:
[1] = target: T1, Human heat shock transcription factor 1 (Hsf1), wild type (human), Q00613; test: native gel or EMSA; settings: remark: other sources report otherwise
T1 chain: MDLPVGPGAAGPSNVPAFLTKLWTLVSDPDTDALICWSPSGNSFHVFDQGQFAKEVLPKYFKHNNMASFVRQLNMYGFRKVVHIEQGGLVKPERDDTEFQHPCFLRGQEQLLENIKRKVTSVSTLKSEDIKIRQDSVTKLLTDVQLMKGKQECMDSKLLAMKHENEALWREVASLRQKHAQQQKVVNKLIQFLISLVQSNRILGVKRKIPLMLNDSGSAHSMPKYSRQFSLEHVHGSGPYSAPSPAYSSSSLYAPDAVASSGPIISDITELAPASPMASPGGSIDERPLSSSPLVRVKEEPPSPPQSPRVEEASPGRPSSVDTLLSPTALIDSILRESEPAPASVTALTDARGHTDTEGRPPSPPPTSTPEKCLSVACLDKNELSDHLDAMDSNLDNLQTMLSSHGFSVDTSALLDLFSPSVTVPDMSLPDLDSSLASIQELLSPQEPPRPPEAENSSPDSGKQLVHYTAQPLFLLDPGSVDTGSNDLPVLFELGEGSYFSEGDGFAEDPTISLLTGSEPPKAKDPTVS

[2] = target: T1, Human heat shock transcription factor 1 …; test: SEC + native gel or EMSA; settings: remark: other sources report otherwise

B1: Human heat shock transcription factor 1 (Hsf1), wild type, Q00613 1-529 (natural protein)
chain: MDLPVGPGAAGPSNVPAFLTKLWTLVSDPDTDALICWSPSGNSFHVFDQGQFAKEVLPKYFKHNNMASFVRQLNMYGFRKVVHIEQGGLVKPERDDTEFQHPCFLRGQEQLLENIKRKVTSVSTLKSEDIKIRQDSVTKLLTDVQLMKGKQECMDSKLLAMKHENEALWREVASLRQKHAQQQKVVNKLIQFLISLVQSNRILGVKRKIPLMLNDSGSAHSMPKYSRQFSLEHVHGSGPYSAPSPAYSSSSLYAPDAVASSGPIISDITELAPASPMASPGGSIDERPLSSSPLVRVKEEPPSPPQSPRVEEASPGRPSSVDTLLSPTALIDSILRESEPAPASVTALTDARGHTDTEGRPPSPPPTSTPEKCLSVACLDKNELSDHLDAMDSNLDNLQTMLSSHGFSVDTSALLDLFSPSVTVPDMSLPDLDSSLASIQELLSPQEPPRPPEAENSSPDSGKQLVHYTAQPLFLLDPGSVDTGSNDLPVLFELGEGSYFSEGDGFAEDPTISLLTGSEPPKAKDPTVS
For B1, the stoichiometry N [1] was over 3 and the stoichiometry N [2] was 3.
